Measurements reported in patent publication US20250270280A1.

What was measured:
[1] = biological target: PA4C7A/H2-D^b (mouse; human)
[2] = biological target: PA4C7K/H2-D^b (mouse; human)
[3] = biological target: PA4C7L/H2-D^b (mouse; human)
[4] = biological target: PA4C/H2-D^b (PA peptide with cysteine at position 4 presented by H2-D^b) (mouse; human)
[5] = biological target: PA/H2-D^b (influenza Polymerase Acidic peptide … presented by H2-D^b) (mouse; human)
[6] = biological target: PA4C/H2-D^b (PA peptide with cysteine at position 4 presented by H2-D^b) (mouse; human); remark: listed apart in the source
[7] = biological target: PA/H2-D^b (influenza Polymerase Acidic peptide … presented by H2-D^b) (mouse; human); remark: listed apart in the source
[8] = biological target: PA4C7A/H2-D^b (mouse; human); remark: listed apart in the source
[9] = biological target: PA4C7K/H2-D^b (mouse; human); remark: listed apart in the source
[10] = biological target: PA4C7L/H2-D^b (mouse; human); remark: listed apart in the source

6218 TCR expressed on cells
tetramer MFI / TCRβ MFI, normalized to 6218 TCR-PA/H2-D^b [1]: 0.16
tetramer MFI / TCRβ MFI, normalized to 6218 TCR-PA/H2-D^b [2]: 0.33
tetramer MFI / TCRβ MFI, normalized to 6218 TCR-PA/H2-D^b [3]: 0.03
tetramer MFI / TCRβ MFI, normalized to 6218 TCR-PA/H2-D^b [4]: 1.03
tetramer MFI / TCRβ MFI, normalized to 6218 TCR-PA/H2-D^b [5]: 1
IL-2 in supernatant (ELISA), 5KC T cells with CD8αβ and the TCR + DC2.4 cells + graded peptide: EC50 [panel PA4C] [6]: 49 nM
IL-2 in supernatant (ELISA), 5KC T cells with CD8αβ and the TCR + DC2.4 cells + graded peptide: EC50 [panel PA] [7]: 50 nM
IL-2 in supernatant (ELISA), 5KC T cells with CD8αβ and the TCR + DC2.4 cells + graded peptide: EC50 [left graph] [8]: > 50000 nM
IL-2 in supernatant (ELISA), 5KC T cells with CD8αβ and the TCR + DC2.4 cells + graded peptide: EC50 [left graph] [9]: > 50000 nM
IL-2 in supernatant (ELISA), 5KC T cells with CD8αβ and the TCR + DC2.4 cells + graded peptide: EC50 [left graph] [10]: > 50000 nM
